Data on one molecule can be found in paper PMC12933331, “A Cryptic Pocket Allosterically Modulates Oligosaccharide Binding to DC-SIGN” (JACS Au, 2026).

Usually stoichiometry N stands for the number of molecules, sites or subunits per partner or assembly.

In experiment [1] the target is T1, DC-SIGN extracellular domain (ECD), wildtype, Q9NNX6.
T1 chain: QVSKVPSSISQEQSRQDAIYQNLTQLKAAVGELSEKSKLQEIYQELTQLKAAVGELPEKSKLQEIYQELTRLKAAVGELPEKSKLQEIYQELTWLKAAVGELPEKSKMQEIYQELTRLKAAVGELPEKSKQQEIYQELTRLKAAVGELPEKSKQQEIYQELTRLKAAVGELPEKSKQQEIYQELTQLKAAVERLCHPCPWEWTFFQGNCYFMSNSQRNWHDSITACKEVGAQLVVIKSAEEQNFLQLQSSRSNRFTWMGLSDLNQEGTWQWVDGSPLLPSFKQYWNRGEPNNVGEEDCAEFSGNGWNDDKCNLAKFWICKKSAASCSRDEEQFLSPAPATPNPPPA
The experiment in a line: dynamic light scattering; purified ECDs; tetrameric state judged from mannan affinity chromatography, DLS and DSF together. The note with it: remark: other sources report otherwise.

Experiment [2] deals with T1, DC-SIGN extracellular domain (ECD), …. The experiment in a line: cryo-EM structure; DC-SIGN ECD, single particles; low resolution map, three of the four CRDs visibly resolved. To be noted: remark: other sources report otherwise.

B1: DC-SIGN extracellular domain (ECD), wildtype, Q9NNX6 59-404 (receptor)
chain: T1 chain
B1: the stoichiometry N in experiment [1] and in experiment [2] was 4 in each case.
